Consider one molecule from EP1272205B1 (The Johns Hopkins University, dated 2013).

Assay [1] addresses SAF-2 on cells (human eosinophils, basophils, cord blood-derived mast cells; HEK293 cells transfected with full length SAF-2) (human) (UniProt Q9NYZ4). Kind of assay: indirect immunofluorescence flow cytometry on human basophils.
In assay [2] the target is T1, SAF-2 polypeptide (extracellular domain of sialoadhesin factor-2, released from SAF-2/Fc with Factor Xa) (human, UniProt Q9NYZ4 17-363).
T1 construct: extracellular domain; The BIAcore paragraph says only 'SAF-2 (diluted in HBS buffer)'; also called Siglec-8
T1 sequence (Q9NYZ4 17-363): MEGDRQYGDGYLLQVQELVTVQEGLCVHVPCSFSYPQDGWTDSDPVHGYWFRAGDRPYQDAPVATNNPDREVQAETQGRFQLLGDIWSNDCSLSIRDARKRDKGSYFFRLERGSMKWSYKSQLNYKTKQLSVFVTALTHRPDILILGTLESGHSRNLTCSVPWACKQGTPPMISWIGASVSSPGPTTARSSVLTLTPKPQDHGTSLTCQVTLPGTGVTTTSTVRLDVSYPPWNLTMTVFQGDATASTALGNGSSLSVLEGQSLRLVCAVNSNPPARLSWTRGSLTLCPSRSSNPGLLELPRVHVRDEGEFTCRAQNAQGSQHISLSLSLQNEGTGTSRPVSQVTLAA
Briefly: BIAcore SPR; mAb captured on rabbit anti-mouse IgG Fc surface, SAF-2 injected. For orientation: SPR reads the build-up and loss of mass on a sensor chip optically.

In assay [3] the target is T1, SAF-2 polypeptide (extracellular domain …). Briefly: BIAcore SPR; mAb captured on rabbit anti-mouse IgG Fc surface, SAF-2 injected; calculated from rates.

Chain of SAF-2 on cells (human eosinophils, basophils, cord blood-derived mast cells; HEK293 cells transfected with full length SAF-2) (human) (Q9NYZ4 17-499): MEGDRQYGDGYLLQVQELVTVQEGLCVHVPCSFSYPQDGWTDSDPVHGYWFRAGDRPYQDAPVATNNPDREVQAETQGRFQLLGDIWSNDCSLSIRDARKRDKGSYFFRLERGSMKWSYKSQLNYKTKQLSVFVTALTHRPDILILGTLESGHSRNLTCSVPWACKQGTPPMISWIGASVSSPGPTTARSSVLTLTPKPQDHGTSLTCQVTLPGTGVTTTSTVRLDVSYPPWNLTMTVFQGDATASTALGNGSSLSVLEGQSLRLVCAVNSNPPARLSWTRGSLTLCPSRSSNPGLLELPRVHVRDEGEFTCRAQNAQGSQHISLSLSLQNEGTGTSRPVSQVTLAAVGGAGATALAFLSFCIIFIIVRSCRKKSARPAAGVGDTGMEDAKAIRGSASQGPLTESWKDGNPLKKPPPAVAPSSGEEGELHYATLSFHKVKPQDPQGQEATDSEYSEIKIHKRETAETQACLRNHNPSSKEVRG

B1: monoclonal antibody 2C4 (antibody, V domains shown)
VH: QVQLKESGPGLVAPSQSLSITCTVSGFSLIYGAHWVRQPPGKGLEWLGVIWAGGSTNYNSALMSRLSISKDNSKSQVFLKINSLQTDDTALYYCARDGSSPYYYSMEYWGQGTSVTVSS
VL: EIILTQSPAIMSASPGEKVSITCSATSSVSYMHWFQQKPGTSPKLWIYSTSNLASGVPVRFSGSGSGTSYSLTISRMEAEDAATYYCQQRSSYPFTFGSGTKLEIKR
notes: also called mAb 2C4
For orientation: koff means a measure of how fast the partners let go of each other. As usually defined, the kon is the rate constant with which the complex forms. As a reminder, the Kd is the concentration at which binding is half-saturated. In turn, B1 showed a percent positive (percent positive) in assay [1] of 21.1. Besides, in assay [2], the koff was 4.3e-05 s⁻¹ and the on-rate constant (kon) amounted to 220000 M⁻¹ s⁻¹. Further, the Kd in assay [3] is 200 pM.
